Nine molecules from patent US20260209334A1 (MAX PLANCK GESELLSCHAFT ZUR F RDERUNG DER WISSENSCHAFTEN E V, published 2026) can be followed below.

Where two headings read alike, the source gives them in different places.

In experiment [1] the target is T1, human IL-17F homodimer, bacterially expressed construct (residues 39-163 with GSEGE linker) (human, UniProt Q96PD4 39-163).
T1 construct: also called IL-17F dimer
T1 chain: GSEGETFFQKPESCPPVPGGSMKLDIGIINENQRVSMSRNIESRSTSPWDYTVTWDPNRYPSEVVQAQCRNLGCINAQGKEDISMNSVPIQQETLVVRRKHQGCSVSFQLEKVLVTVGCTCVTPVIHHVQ
Nature of the experiment: BLI, biotinylated VHH immobilized on streptavidin sensors, IL-17 as analyte (10, 20, 40 nM), mass transport fit; apparent value, avidity possible.

The target in experiment [2] is T2, human IL-17A/F heterodimer, bacterially expressed construct (human, UniProt Q16552 40-155; Q96PD4 39-163, limits assumed).
T2 construct: IL-17A unit with N68D, IL-17F unit with N83D and C137S, both with GSEDS spacer; already in the entries
Described as above.

The target of experiment [3] is T3, human IL-17A homodimer, bacterially expressed construct (residues 40-155 with GSEDS spacer) (human, UniProt Q16552 40-155).
T3 chain: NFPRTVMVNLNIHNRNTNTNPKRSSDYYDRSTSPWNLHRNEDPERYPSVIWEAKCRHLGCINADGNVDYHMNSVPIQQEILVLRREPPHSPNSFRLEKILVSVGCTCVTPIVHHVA
Described as above.

Experiment [4] deals with T2, human IL-17A/F heterodimer, bacterially …. Nature of the experiment: BLI, VHH immobilized, IL-17 as analyte; apparent KD with avidity; µM as printed (Table 3 uses pM).
For experiment [5], the target named is T1, human IL-17F homodimer, bacterially …. The experiment is described as above.
The target in experiment [6] is T3, human IL-17A homodimer, bacterially …. The experiment is described as above.
For experiment [7], the target named is T1, human IL-17F homodimer, bacterially …. Briefly: BLI, biotinylated VHH immobilized on streptavidin sensors, IL-17 as analyte (10, 20, 40 nM), mass transport fit; apparent value, avidity possible.
The target of experiment [8] is T2, human IL-17A/F heterodimer, bacterially …. The experiment is described as above. The source holds these as a separate data set.
Experiment [9] concerns the target T3, human IL-17A homodimer, bacterially …. The description is as above.
Experiment [10] concerns the target T4, human IL-17A with C-terminal Avi-tag, biotinylated, immobilized on BLI sensors (human, UniProt Q16552 24-155, biotin on the C-terminal Avi-tag (BirA)).
T4 construct: also called biotinylated IL-17A; not shown: C-terminal Avi-tag
Briefly: BLI, biotinylated IL-17A immobilized on streptavidin sensors, monovalent VHH as analyte (25, 50, 100 nM), 2:1 heterogenous fit, high affinity component.

Experiment [11] has as its target T5, human IL-17F with C-terminal Avi-tag, biotinylated, immobilized on BLI sensors (human, UniProt Q96PD4 31-163, biotin on the C-terminal Avi-tag (BirA)).
T5 construct: also called biotinylated IL-17F; not shown: C-terminal Avi-tag
T5 sequence: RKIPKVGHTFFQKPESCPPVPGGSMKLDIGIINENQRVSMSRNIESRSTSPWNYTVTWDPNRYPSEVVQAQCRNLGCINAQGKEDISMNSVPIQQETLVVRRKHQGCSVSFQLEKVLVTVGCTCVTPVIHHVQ
Nature of the experiment: BLI, biotinylated IL-17F immobilized on streptavidin sensors, monovalent VHH as analyte (20, 100 nM), 2:1 heterogenous fit, low affinity component.

The target of experiment [12] is T4, human IL-17A with C-terminal Avi-tag, …. Nature of the experiment: BLI, biotinylated IL-17A immobilized on streptavidin sensors, monovalent VHH as analyte (20, 100 nM), 2:1 heterogenous fit, low affinity component.
For experiment [13] the target is unchanged. Briefly: BLI, biotinylated IL-17A immobilized, monovalent VHH as analyte; 2:1 heterogenous model, high affinity component.
The target in experiment [14] is recombinant human IL-17A (produced in HEK cells, Proteintech HZ-1113) (human, UniProt Q16552 24-155). Nature of the experiment: cell-based or functional assay.
For experiment [15], the target named is recombinant human IL-17A/F (produced in CHO cells, R&D Systems 5837-IL) (human, UniProt Q16552 24-155; Q96PD4 31-163, limits assumed). Briefly: cell-based or functional assay.
Experiment [16] has as its target T6, recombinant human IL-17F (produced in HEK cells, Proteintech HZ-1116) (human, UniProt Q96PD4 31-163).
T6 sequence (looked up): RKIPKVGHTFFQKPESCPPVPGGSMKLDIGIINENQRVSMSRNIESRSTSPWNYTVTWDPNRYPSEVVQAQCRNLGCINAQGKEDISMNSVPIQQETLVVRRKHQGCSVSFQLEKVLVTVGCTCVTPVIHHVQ
Nature of the experiment: cell-based or functional assay.

The target in experiment [17] is T5, human IL-17F with C-terminal Avi-tag, …. Nature of the experiment: BLI, biotinylated IL-17F immobilized, monovalent VHH as analyte; 2:1 heterogenous model, high affinity component.

recombinant human IL-17A (produced in HEK cells, Proteintech HZ-1113), sequence (Q16552 24-155 limits assumed): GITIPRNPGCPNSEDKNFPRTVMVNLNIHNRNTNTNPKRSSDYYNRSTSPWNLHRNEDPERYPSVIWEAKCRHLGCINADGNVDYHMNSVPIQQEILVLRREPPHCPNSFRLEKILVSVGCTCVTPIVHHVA
recombinant human IL-17A/F (produced in CHO cells, R&D Systems 5837-IL), sequence (Q16552 24-155 limits assumed, chain 1 of 2, one chain of several): as the sequence (Q16552 24-155 limits assumed) above

B1: Re42B04 with C-terminal Avi-Biotin-tag, biotinylated (VHH)
VHH: QVQLVESGGGLVQVGGSLRLSCEVSGLPVSSYAMGWFRQAPEKEREFVAAISWIGGDSRYAHFVKGRFTISRDNAKNTVHLQMDSLKPEDTAVYYCNDMPYGLDTRMDEYEYWGLGTQVTVSS
modifications: biotin on the C-terminal Avi-tag (BirA)
notes: not shown: C-terminal Avi-Biotin-tag
For B1, the Kd in experiment [1] was ≤ 0.01 nM; in experiment [2], ≤ 0.01 nM; in [3], ≤ 0.01 nM; in [4] it was ≤ 20000 nM. The koff in experiment [1], in [2] and in experiment [3] was ≤ 1e-07 s⁻¹ throughout. Also, the on-rate constant (kon) is 140000 M⁻¹ s⁻¹ in experiment [1], 240000 M⁻¹ s⁻¹ in [2] and 110000 M⁻¹ s⁻¹ in experiment [3].

B2: Bm17B02 with C-terminal Avi-Biotin-tag, biotinylated (VHH)
VHH: QVQLVESGGGLVNTGGSLRLSCVVSGHTSEISAMGWYRQAPGKQRELVALITSRSGDTHYSDSVKGRFSISRDNAKNTMYLQMNSLNPDDTAVYYCVHNEPGHLYMAQGTQVTVSS
modifications: biotin on the C-terminal Avi-tag (BirA)
notes: as for B1
Take B2: the Kd was ≤ 20000 nM in [5]; ≤ 20000 nM in experiment [4]; ≤ 20000 nM in [6]; 0.02 nM in experiment [7]; ≤ 0.01 nM in experiment [8]; ≤ 0.01 nM in [9]. The koff in experiment [7] was 5.4e-05 s⁻¹; in [8], ≤ 1e-07 s⁻¹; in [9], ≤ 1e-07 s⁻¹. For the same molecule, the figures for the kon in [7], in [8] and in experiment [9] were 750000 M⁻¹ s⁻¹, 1.4e+06 M⁻¹ s⁻¹ and 220000 M⁻¹ s⁻¹, respectively.

B3: Bm17B02 (VHH)
VHH: QVQLVESGGGLVNTGGSLRLSCVVSGHTSEISAMGWYRQAPGKQRELVALITSRSGDTHYSDSVKGRFSISRDNAKNTMYLQMNSLNPDDTAVYYCVHNEPGHLYMAQGTQVTVSS
notes: Class B, first generation; For the crystal it was made with a His14-ScSUMO tag that was cleaved off
As for B3, the Kd in [10] was found to be 0.7 nM.

B4: Re42F08 with C-terminal Avi-Biotin-tag, biotinylated (VHH)
VHH: QVQLVESGGGLVKAGGSLRLSCVVSGHTSEISAMGWYRQAPGKQRELVALITSRSGDTHYSDSVKGRFSISRDNAKNTMYLQMNSLNPDDTAVYYCVHNEPGHLYMAQGTQVTVSS
modifications: biotin on the C-terminal Avi-tag (BirA)
notes: as for B1
With B4, the Kd in experiment [5] was ≤ 20000 nM; in experiment [4] it was ≤ 20000 nM; in experiment [6], ≤ 20000 nM; in [7], 0.02 nM; in experiment [8], ≤ 0.01 nM; in [9] it was ≤ 0.01 nM. Further, the off-rate (koff) in experiment [7], in [8] and in [9] was ≤ 1e-07 s⁻¹ in each case. For the same molecule, the kon in [7] was determined as 500000 M⁻¹ s⁻¹; in experiment [8], 510000 M⁻¹ s⁻¹; in [9], 160000 M⁻¹ s⁻¹.

B5: Bm18B05 with C-terminal Avi-Biotin-tag, biotinylated (VHH)
VHH: QVQLVESGGGLVQPGGSLRLSCAVSGRTFSSYAMGWFRRPPGKEREFVAAISWSGGDTKYADFVTDRFTISRDDAKSTVYLQMNSLKPEDTAVYYCNDMPYGLDTRMDEYEYWGQGTQVTVSS
modifications: biotin on the C-terminal Avi-tag (BirA)
notes: as for B1
On to B5, for which the Kd in [1] is ≤ 0.01 nM; in [2], ≤ 0.01 nM; in [3] it was ≤ 0.01 nM; in experiment [5] it was ≤ 20000 nM; in experiment [4], ≤ 20000 nM; in [6] it was ≤ 20000 nM. Besides, the koff in [1], in experiment [2] and in experiment [3] was ≤ 1e-07 s⁻¹ in each case. For the same molecule, the on-rate constant (kon) in [1] worked out at 86000 M⁻¹ s⁻¹; in experiment [2], 120000 M⁻¹ s⁻¹; in [3], 260000 M⁻¹ s⁻¹.

B6: Bm44B04 (VHH)
VHH: QVQLVESGGGLVRTGGSLRLSCSVSGDISSQSAMGWYRQVPGRQRELVAMIHTTKGDTYYADSVKGRFTISRINANNTIYLQMNNLKPEDTAIYYCTHNEPGDLYMGQGTQVTVSS
notes: Class B, second generation
Consider B6, for which the figures for the KD2 in [11] and in experiment [12] were 20 nM and 25 nM, respectively. The Kd in experiment [13] amounted to 0.6 nM; in [17], 0.35 nM. Besides, the “Neutralization potency, ranking from 1 = the best to 4 (HEK-Blue IL-17 reporter cells)” value (“Neutralization potency, ranking” below) in experiment [14] was determined as 2 rank; in experiment [15], 1 rank; in experiment [16], 2 rank.

B7: Bm42A09 (VHH)
VHH: QVQLVESGGGLVRTGGSLRLSCSVSGDISSQSAMGWYRQVPGRQRELVAMIHTTKGDTYYADSVKGRFTISRINANNTIYLQMNNLKPEDTAIYYCTHNEPGDLYMGQGTLVTVSS
notes: Class B, second generation
The molecule B7 had a KD2 in experiment [12] of 300 nM. Moreover, the Kd is 0.8 nM in experiment [13] and ≤ 0.01 nM in experiment [17]. The “Neutralization potency, ranking” value in [14] was found to be 2 rank; in experiment [15], 1 rank; in experiment [16], 1 rank.

B8: Bm44G07 (VHH)
VHH: QVQLVQSGGGLVQTGGSLRLSCSVSGDISSQSAMGWYRQVPGRQRELVAMIHTTKGDTYYADSVKDRFTISRINANNTIHLQMNNLKPEDTAIYYCTHNEPGDLYMGQGTQVTVSS
notes: Class B, second generation
In the case of B8, the KD2 was found to be 40 nM in experiment [11] and 120 nM in experiment [12]. In addition, the Kd in experiment [13] was 3 nM; in experiment [17], 1 nM. In addition, the “Neutralization potency, ranking” value is 3 rank in experiment [14], 4 rank in experiment [15] and 1 rank in experiment [16].

B9: Bm18F11 with C-terminal Avi-Biotin-tag, biotinylated (VHH)
VHH: QVQLVESGGDLVQAGGSLRLSCAASGLTGSSYAMGWFRQAPGKEREFVAAISWISGDTKYTDSVKGRFTMSRDNAKKQVYLEMNSLKPEDTAVYYCNDMPYGLDTRMDEYVYWGQGTQVTVSS
modifications: biotin on the C-terminal Avi-tag (BirA)
notes: as for B1
B9: the Kd in experiment [1] was ≤ 0.01 nM; in experiment [2], ≤ 0.01 nM; in experiment [3], ≤ 0.01 nM; in [5], ≤ 20000 nM; in [4], ≤ 20000 nM; in experiment [6], ≤ 20000 nM. Moreover, the off-rate (koff) in [1], in experiment [2] and in experiment [3] was ≤ 1e-07 s⁻¹ each time. Moreover, the figures for the on-rate (kon) in experiment [1], in [2] and in experiment [3] were 150000 M⁻¹ s⁻¹, 280000 M⁻¹ s⁻¹ and 95000 M⁻¹ s⁻¹, respectively.
